Experimental data reported in patent US20120172293A1 (Takeda / Millennium, published 2012).
Non-standard residues stand in square brackets, D forms with d. *: point of attachment. Amidino = amidino group, N=C(N)*; tBuAla = CC(C)(C)C[C@H](N)C(=O)O; Cha = N[C@@H](CC1CCCCC1)C(=O)O; Aib = CC(C)(N)C(=O)O; Carbamoyl = NC(=O)*

T1: human Y2 receptor (human, UniProt P49146 1-381)
T1 construct: whole, on cells; used as membrane fraction of hY2R/CHO cells; also called human NPY2R; hY2R
T1 sequence (looked up): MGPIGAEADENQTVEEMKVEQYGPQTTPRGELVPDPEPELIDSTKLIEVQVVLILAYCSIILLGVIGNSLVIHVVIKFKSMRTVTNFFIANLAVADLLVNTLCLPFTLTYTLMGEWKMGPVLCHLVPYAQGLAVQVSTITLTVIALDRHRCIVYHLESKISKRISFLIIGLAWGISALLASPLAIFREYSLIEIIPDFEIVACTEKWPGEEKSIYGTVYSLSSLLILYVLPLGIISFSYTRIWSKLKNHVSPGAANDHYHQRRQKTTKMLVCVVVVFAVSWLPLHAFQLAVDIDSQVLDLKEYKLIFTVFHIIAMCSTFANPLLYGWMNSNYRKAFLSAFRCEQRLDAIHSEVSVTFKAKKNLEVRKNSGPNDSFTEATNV


Legend:
human Y2 receptor [1] = molecular target: T1, human Y2 receptor; test: RBA: [125I]-PYY displacement, hY2R/CHO membranes
Protocol: After incubation at room temperature for 60 minutes, the mixture was filtered through the cell harvester FilterMate (PerkinElmer) using UniFilter-96 GF/C treated with polyethylenimine (PEI) solution (20 mM Tris, 0.3% PEI, pH 7.4), and the filter was washed 3 times with a filtering buffer (50 mM Tris, 5 mM MgCl₂, 150 mM NaCl, 0.03% NaN₃, 0.05% CHAPS, pH 7.4). Thereafter, UniFilter-96 GF/C was dried in a mechanical drier for 1 hour, 15 μl of the liquid scintillator MicroScint O (PerkinElmer) was added to each well, and a measurement was taken using TopCount (PerkinElmer). The data obtained were analyzed using Prism to calculate the IC₅₀ value.

human Y2 receptor [2] = molecular target: T1, human Y2 receptor; test: cell-based or functional assay

Binder	IC50 Ratio (vs PYY(3-36)) (human Y2 receptor [1]) [ratio]	GBA EC50 Ratio (vs PYY(3-36)), [35S]GTPγS (human Y2 receptor [2]) [ratio]
Ac-SGRH[Cha][Cha]NL[Aib]TRQR[Cha]-NH2 (SMILES CC(=O)N[C@@H](CO)C(=O)NCC(=O)N[C@@H](CCCNC(=N)N)C(=O)N[C@@H](Cc1c[nH]cn1)C(=O)N[C@@H](CC1CCCCC1)C(=O)N[C@@H](CC1CCCCC1)C(=O)N[C@@H](CC(N)=O)C(=O)N[C@@H](CC(C)C)C(=O)NC(C)(C)C(=O)N[C@H](C(=O)N[C@@H](CCCNC(=N)N)C(=O)N[C@@H](CCC(N)=O)C(=O)N[C@@H](CCCNC(=N)N)C(=O)N[C@@H](CC1CCCCC1)C(N)=O)[C@@H](C)O, also called compound No. 112) [Ac-[Gly24, Cha27,28,36, Aib31]-PYY(23-36)]	6.3	3.9
Carbamoyl-D[dP]RH[Cha][Cha]NL[Aib]TRQR[Cha]-NH2 (SMILES CC(C)C[C@H](NC(=O)[C@H](CC(N)=O)NC(=O)[C@H](CC1CCCCC1)NC(=O)[C@H](CC1CCCCC1)NC(=O)[C@H](Cc1c[nH]cn1)NC(=O)[C@H](CCCNC(=N)N)NC(=O)[C@H]1CCCN1C(=O)[C@H](CC(=O)O)NC(N)=O)C(=O)NC(C)(C)C(=O)N[C@H](C(=O)N[C@@H](CCCNC(=N)N)C(=O)N[C@@H](CCC(N)=O)C(=O)N[C@@H](CCCNC(=N)N)C(=O)N[C@@H](CC1CCCCC1)C(N)=O)[C@@H](C)O, also called compound No. 161; ureido-[Asp23,D-Pro24,Cha27,28,36,Aib31]-PYY(23-36)) [Carbamoyl-[Asp23, D-Pro24, Cha27,28,36, Aib31]-PYY(23-36)]	4.1	2.4
Amidino-S[dP]RH[Cha][tBuAla]NK[Aib]TRQR[Cha]-NH2 (SMILES C[C@@H](O)[C@H](NC(=O)C(C)(C)NC(=O)[C@H](CCCCN)NC(=O)[C@H](CC(N)=O)NC(=O)[C@H](CC(C)(C)C)NC(=O)[C@H](CC1CCCCC1)NC(=O)[C@H](Cc1c[nH]cn1)NC(=O)[C@H](CCCNC(=N)N)NC(=O)[C@H]1CCCN1C(=O)[C@H](CO)NC(=N)N)C(=O)N[C@@H](CCCNC(=N)N)C(=O)N[C@@H](CCC(N)=O)C(=O)N[C@@H](CCCNC(=N)N)C(=O)N[C@@H](CC1CCCCC1)C(N)=O, also called compound No. 186) [Amidino-[D-Pro24, Cha27,36, Leu(Me)28, Lys30, Aib31]-PYY(23-36)]	0.43	0.69
Ac-Y[dP]RH[Cha][Cha]NL[Aib]TRQR[Cha]-NH2 (SMILES CC(=O)N[C@@H](Cc1ccc(O)cc1)C(=O)N1CCC[C@@H]1C(=O)N[C@@H](CCCNC(=N)N)C(=O)N[C@@H](Cc1c[nH]cn1)C(=O)N[C@@H](CC1CCCCC1)C(=O)N[C@@H](CC1CCCCC1)C(=O)N[C@@H](CC(N)=O)C(=O)N[C@@H](CC(C)C)C(=O)NC(C)(C)C(=O)N[C@H](C(=O)N[C@@H](CCCNC(=N)N)C(=O)N[C@@H](CCC(N)=O)C(=O)N[C@@H](CCCNC(=N)N)C(=O)N[C@@H](CC1CCCCC1)C(N)=O)[C@@H](C)O, also called compound No. 162) [Ac-[Tyr23, D-Pro24, Cha27,28,36, Aib31]-PYY(23-36)]	5.2	2.6
Amidino-E[dP]RH[Cha][Cha]NK[Aib]TRQR[Cha]-NH2 (SMILES C[C@@H](O)[C@H](NC(=O)C(C)(C)NC(=O)[C@H](CCCCN)NC(=O)[C@H](CC(N)=O)NC(=O)[C@H](CC1CCCCC1)NC(=O)[C@H](CC1CCCCC1)NC(=O)[C@H](Cc1c[nH]cn1)NC(=O)[C@H](CCCNC(=N)N)NC(=O)[C@H]1CCCN1C(=O)[C@H](CCC(=O)O)NC(=N)N)C(=O)N[C@@H](CCCNC(=N)N)C(=O)N[C@@H](CCC(N)=O)C(=O)N[C@@H](CCCNC(=N)N)C(=O)N[C@@H](CC1CCCCC1)C(N)=O, also called compound No. 190) [Amidino-[Glu23, D-Pro24, Cha27,28,36, Lys30, Aib31]-PYY(23-36)]	0.66	0.77
